Laboratory results: patent US20050074814A1, “Relaxin3-GPCR135 complexes and their production and use” (priority 2003, published 2005)

Legend:
CHO-K1 cells = test: Intracellular cAMP accumulation assay in un-transfected CHO-K1 control cells; type: cell-based
Method: CHO-K1 cells stably expressing human GPCR135 (GPCR135) and un-transfected CHO-K1 cells (Control) were used for cAMP accumulation assays. Cells were treated with different stimulants as indicated. cAMP accumulated in the cells was extracted by HCl and the concentration of cAMP was measured by a ELISA kit (NEN) using ^125I-labeled cAMP and Flash plates.
(§1) CHO-K1 cells stably expressing human GPCR135 were established by transfection of GPCR135 expressing plasmid into CHO-K1 (ATCC# CCL-61) cells and culturing the transfected cells under selection of G418 (400 mg/L). The receptor expressing cells were seeded in 96-well plates at a cell density of 30,000 cells/well. Twenty-four hours later, cell culture medium was replaced with DMEM-F12 plus 2 mM IBMX (sigma). A different test compound for cAMP stimulation was added to each well. The reactions were incubated at room temperature for 20 min. Twenty micro-liters of 0.5 N HCl was added to each well to stop the reaction and extract the accumulated cAMP. The cAMP concentration was measured using a cAMP ELISA kit (NEN).

human GPCR135 = test: Intracellular cAMP accumulation assay in CHO-K1 cells stably expressing human GPCR135; type: cell-based; details: in the presence of GPCR135
Method: as §1

GPCR135 [1] = molecular target: T1, GPCR135 (Homo sapiens, UniProt Q9NSD7); test: as above; type: cell-based; set-up: primers complementary to the putative translation start and stop sites of the GPCR135 open reading frame; expressed in transfected cells; host or cells: CHO-K1 (transient, pCIneo vector), membranes; details: CHO-K1 cells expressing human GPCR135
T1 sequence (Q9NSD7 1-469): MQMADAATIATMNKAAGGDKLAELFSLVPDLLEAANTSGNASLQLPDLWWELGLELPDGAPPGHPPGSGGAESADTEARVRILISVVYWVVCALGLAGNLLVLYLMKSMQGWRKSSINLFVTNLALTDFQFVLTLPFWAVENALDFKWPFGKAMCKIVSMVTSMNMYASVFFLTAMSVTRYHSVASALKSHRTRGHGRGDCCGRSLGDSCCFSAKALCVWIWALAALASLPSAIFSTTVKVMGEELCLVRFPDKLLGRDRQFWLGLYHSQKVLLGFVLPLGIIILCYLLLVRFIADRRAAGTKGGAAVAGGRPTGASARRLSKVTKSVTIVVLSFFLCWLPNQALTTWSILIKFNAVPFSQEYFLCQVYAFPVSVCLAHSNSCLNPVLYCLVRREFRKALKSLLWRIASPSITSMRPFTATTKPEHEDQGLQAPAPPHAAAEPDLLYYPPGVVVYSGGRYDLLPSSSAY
Method: as §1

GPCR135 [2] = molecular target: T1, GPCR135; test: Ca2+ mobilization assay (FLIPR) in HEK293 cells co-expressing GPCR135 and Gqi5; type: cell-based; set-up: primers complementary to the putative translation start and stop sites of the GPCR135 open reading frame; expressed in transfected cells
Method: Using LipofectAmine, human embryonic kidney (HEK) 293 cells were co-transfected with a plasmid expressing GPCR135 receptor and a plasmid expressing Gqi5, a mutant G-protein that translates the activation of GPCR135 into an increased intracellular Ca 2+, or increased Ca^2+ mobilization (Conklin et al., 1993, Nature 363: 274-276). Two days after transfection, cells were detached with PBS plus 10 mM EDTA, pH 8.0. The detached cells were washed with DMEM-F12 medium (without phenol red, Invitrogen) and seeded in black poly-D lysine coated 96-well plates at a cell density of 50,000 cell/well. Calcium dye, Fluo-3 (AM) (TEFLABS, Austin, Tex.) was loaded into the cells and ligand stimulated calcium mobilization was monitored using FLIPR (Molecular Device).
HEK293 cells, untransfected (293 Control) or transfected by Gqi5 (293/Gqi5) alone or human GPCR135 (GPCR135) alone, or co-transfected by human GPCR135 and Gqi5 (GPCR135/Gqi5), were used for Ca^2+ mobilization assays under stimulation of relaxin3 as the ligand. Ligand-stimulated intracellular mobilization was monitored using FLIPR.

LGR7 = molecular target: T2, LGR7 (Homo sapiens, UniProt Q9HBX9); details: cited from earlier work
T2 sequence (Q9HBX9 1-757): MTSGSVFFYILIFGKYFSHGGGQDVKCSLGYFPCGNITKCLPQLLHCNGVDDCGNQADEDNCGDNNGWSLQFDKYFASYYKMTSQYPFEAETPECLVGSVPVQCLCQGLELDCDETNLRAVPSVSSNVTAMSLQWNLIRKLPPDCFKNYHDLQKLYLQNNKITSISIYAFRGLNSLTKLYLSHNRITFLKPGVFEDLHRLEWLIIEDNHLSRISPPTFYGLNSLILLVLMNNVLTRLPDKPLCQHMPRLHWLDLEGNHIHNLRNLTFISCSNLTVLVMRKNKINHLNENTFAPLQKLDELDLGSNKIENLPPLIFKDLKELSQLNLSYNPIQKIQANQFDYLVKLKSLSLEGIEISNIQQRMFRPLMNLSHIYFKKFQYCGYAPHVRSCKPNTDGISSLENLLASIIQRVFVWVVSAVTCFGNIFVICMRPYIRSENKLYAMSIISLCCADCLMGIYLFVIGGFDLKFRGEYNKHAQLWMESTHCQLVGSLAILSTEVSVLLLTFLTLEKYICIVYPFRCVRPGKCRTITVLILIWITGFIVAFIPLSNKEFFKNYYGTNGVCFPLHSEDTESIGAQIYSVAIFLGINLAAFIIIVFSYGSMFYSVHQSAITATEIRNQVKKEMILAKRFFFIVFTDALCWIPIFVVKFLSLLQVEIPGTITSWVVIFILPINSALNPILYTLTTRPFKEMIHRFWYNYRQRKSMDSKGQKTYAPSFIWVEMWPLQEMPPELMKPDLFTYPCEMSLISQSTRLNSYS

GPCR135 [3] = molecular target: T1, GPCR135; test: GTPγS binding assay with GPCR135 expressing cell membranes; type: biochemical; set-up: primers complementary to the putative translation start and stop sites of the GPCR135 open reading frame; expressed in transfected cells; host or cells: CHO-K1 (transient, pCIneo vector), membranes; details: isolated membranes of CHO-K1 cells transfected with GPCR135; 35S-GTPγS
Method: Frozen rat brains (5 g) were homogenized at −30° C. in 40 ml ethanol/HCl (ethanol to 0.8M HCl ratio at 3:1). The homogenate was extracted at 4° C. for 2 hr and then centrifuged at 4° C. at 20,000 g for 30 min. The supernatant was loaded onto a 2 ml SP-Sephadex C-25 column (Amersham), washed with 1 M acetic acid and eluted with 2 M pyridine and 1 M acetic acid. The eluted fraction was loaded onto a 6 ml C-18 BondElut column, washed with 0.1% TFA and eluted with 60% acetonitrile and 0.1% TFA. The eluted peptides were lyophilized, reconstituted in water, and tested for GPCR135 ligand activity using GTPγS binding assay as described in Example 5.
GPCR135 expression vector was transfected into CHO-K1 cells using Lipofectamine (Invitrogen). Two days after transfection, the transfected cells were harvested and homogenized in GTPγS binding buffer: 50 mM Tris-HCl, pH 7.4, 10 mM MgCl2, 1 mM EDTA pH 8.0, and 100 mM NaCl. Protease inhibitors were added to the buffer at concentrations of 1 mM PMSF, 10 μg/ml of pepstain A, 10 μg/ml of leupeptin. Cell membranes were isolated by centrifugation at 20,000 g for 30 min. […] Microscint-40 (Packard) was added to each well and the plate was counted on a top counter (TopCount NTX, Packard).

mouse GPCR135 = molecular target: T3, mouse GPCR135 (Mus musculus, UniProt Q8BGE9); test: Radioligand binding assay on COS-7 cells transfected with GPCR135; details: mouse GPCR135 in COS-7 cells; presence or absence of 1 μM unlabeled competitor
T3 construct: Mouse GPCR135 coding region was PCR amplified from mouse genomic DNA; expressed in transfected cells; host or cells: COS-7 (transient)
T3 sequence (Q8BGE9 1-472): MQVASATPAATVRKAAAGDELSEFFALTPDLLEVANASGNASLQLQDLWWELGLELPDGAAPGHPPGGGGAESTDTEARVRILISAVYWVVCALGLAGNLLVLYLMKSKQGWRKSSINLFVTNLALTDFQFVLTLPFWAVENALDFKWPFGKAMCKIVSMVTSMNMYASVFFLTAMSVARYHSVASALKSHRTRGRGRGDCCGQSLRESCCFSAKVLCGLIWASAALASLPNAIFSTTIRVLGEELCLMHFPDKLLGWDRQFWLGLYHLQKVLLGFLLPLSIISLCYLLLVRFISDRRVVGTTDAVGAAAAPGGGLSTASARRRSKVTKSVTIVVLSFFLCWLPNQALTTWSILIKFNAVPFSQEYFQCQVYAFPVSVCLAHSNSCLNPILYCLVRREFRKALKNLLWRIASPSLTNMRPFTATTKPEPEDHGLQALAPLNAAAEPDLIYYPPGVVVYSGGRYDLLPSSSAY
Method: (§2) COS-7 cells in 6-well tissue culture plates were transfected by GPCR135 expressing plasmid using LipofectAmine. Two days after transfection, cells were washed with binding buffer: DMEM plus 50 mM Hepes, pH 7.2 and 1% BSA. ^125I-label human relaxin3 was added to each well in 1 ml of binding buffer at presence or absence 1 μM of unlabeled relaxin as competitor. The binding assays were carried out at room temperature for one hour and the unbound ligand was washed away by ice-cold PBS. The bound 125I-relaxin3 was counted in a gamma counter.

rat GPCR135 = test: as above; details: rat GPCR135 in COS-7 cells; presence or absence of 1 μM unlabeled competitor
Method: as §2

GPCR135 [4] = molecular target: T1, GPCR135; test: as above; set-up: primers complementary to the putative translation start and stop sites of the GPCR135 open reading frame; expressed in transfected cells; details: human GPCR135 in COS-7 cells; presence or absence of 1 μM unlabeled competitor
Method: as §2

GPCR135 [5] = molecular target: T1, GPCR135; set-up: host or cells: Cos-1 (transient); details: transient expression of GPCR135 in Cos-1 cells; cited from earlier work

rat GPCR135, sequence (as listed by the source): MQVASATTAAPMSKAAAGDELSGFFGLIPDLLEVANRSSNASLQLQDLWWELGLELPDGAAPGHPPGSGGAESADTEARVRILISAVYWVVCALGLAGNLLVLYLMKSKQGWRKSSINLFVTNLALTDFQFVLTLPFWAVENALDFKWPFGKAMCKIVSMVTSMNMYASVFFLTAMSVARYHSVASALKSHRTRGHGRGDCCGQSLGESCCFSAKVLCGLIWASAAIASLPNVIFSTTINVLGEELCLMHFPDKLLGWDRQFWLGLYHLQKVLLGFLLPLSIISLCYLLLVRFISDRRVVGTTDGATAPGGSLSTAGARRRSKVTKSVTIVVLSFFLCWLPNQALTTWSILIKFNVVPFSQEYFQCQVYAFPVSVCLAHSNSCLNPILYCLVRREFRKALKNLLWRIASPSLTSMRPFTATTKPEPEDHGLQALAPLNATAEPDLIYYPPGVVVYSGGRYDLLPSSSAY

C=C[C@@]1(C)CC(=O)[C@]2(O)[C@@]3(C)[C@@H](O)CCC(C)(C)[C@@H]3[C@H](O)[C@H](OC(C)=O)[C@@]2(C)O1 [forskalin]
intracellular concentration of cAMP (CHO-K1 cells; in the absence of GPCR135): increases the intracellular concentration of cAMP | intracellular concentration of cAMP (human GPCR135): increases the intracellular concentration of cAMP

relaxin3: recombinant human relaxin3, mature two-chain (A and B) peptide linked by disulfide bridges, purified from transfected COS-7 medium
forskalin-stimulated cAMP accumulation (CHO-K1 cells; control cells where GPCR135 is absent): not in control cells | forskalin-stimulated cAMP accumulation (GPCR135 [1]): inhibits forskalin-stimulated cAMP accumulation | ligand-stimulated intracellular Ca2+ mobilization (GPCR135 [2]): stimulated Ca^2+ mobilization | activation of LGR7 (LGR7): activates LGR7 | stimulation of GTPγS binding in GPCR135 expressing cell membrane (GPCR135 [3]): potently stimulated GTPγS binding

^125I-relaxin 3: 125I-labeled human relaxin3 used as radioligand
specific binding to GPCR135 (mouse GPCR135): specifically binds | specific binding to GPCR135 (rat GPCR135): specifically binds | specific binding to GPCR135 (GPCR135 [4]): specifically binds

angiotensin II (DRVYIHPF; Angiotensin-2; UniProt P01019 25-32, looked up)
binding sites on GPCR135 expressing cells (GPCR135 [5]): did not produce any binding sites
